Reference: patent publication US20250051474A1, “ANTI-CD97 ANTIBODIES AND ANTIBODY-DRUG CONJUGATES” (New York University, priority 2023, published 2025)
Changes are numbered by the printed parent chain.

Legend:
[1] = target: T1, CD97 GAIN mutant T351K expressed on ExpiCHO cells (human, UniProt P48960 21-835); test: cell-based binding assay: CD97 GAIN mutant T351K transiently expressed on ExpiCHO cells, A8 Fab titrated, flow cytometry MFI; lower panel
T1 construct: numbering of isoform 1; whole entry named
T1 sequence: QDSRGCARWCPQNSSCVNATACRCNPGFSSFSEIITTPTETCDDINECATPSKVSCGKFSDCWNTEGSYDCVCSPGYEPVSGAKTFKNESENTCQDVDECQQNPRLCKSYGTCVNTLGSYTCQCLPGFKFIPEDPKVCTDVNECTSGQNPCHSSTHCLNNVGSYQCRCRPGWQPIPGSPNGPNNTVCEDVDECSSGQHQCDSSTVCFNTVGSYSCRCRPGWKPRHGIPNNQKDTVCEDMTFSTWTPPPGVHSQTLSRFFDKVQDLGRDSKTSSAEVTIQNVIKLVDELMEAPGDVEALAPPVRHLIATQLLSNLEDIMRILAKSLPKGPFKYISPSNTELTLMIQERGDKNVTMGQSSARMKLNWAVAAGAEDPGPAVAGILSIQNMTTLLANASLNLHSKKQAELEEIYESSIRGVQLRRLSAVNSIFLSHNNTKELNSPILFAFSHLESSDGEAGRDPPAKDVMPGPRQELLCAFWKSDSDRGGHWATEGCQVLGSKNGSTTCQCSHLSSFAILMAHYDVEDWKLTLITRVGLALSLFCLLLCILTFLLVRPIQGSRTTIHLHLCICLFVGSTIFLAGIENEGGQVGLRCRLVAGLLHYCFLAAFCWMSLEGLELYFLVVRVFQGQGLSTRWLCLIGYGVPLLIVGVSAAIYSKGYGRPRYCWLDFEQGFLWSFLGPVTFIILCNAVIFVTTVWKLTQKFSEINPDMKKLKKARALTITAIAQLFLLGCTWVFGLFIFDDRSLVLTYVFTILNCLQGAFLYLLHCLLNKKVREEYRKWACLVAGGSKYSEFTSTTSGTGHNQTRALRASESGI
Protocol: (§1) KD values were determined from the curve fitting of a 1:1 binding model.

[2] = target: T2, CD97 GAIN mutant Q376A expressed on ExpiCHO cells (human, UniProt P48960 21-835); test: cell-based binding assay: CD97 GAIN mutant transiently expressed on ExpiCHO cells, A8 Fab titrated, flow cytometry MFI, 1:1 fit; upper panel
T2 construct: numbering of isoform 1; whole entry named
T2 sequence: T1 sequence with K331T, Q356A
Protocol: as §1

[3] = target: T3, CD97 (reference without GAIN mutation) expressed on ExpiCHO cells in the mutational study (human, UniProt P48960 21-835); test: cell-based binding assay: CD97 transiently expressed on ExpiCHO cells, A8 Fab titrated, flow cytometry MFI, 1:1 fit; the same WT curve and value stand in the upper and the lower panel
T3 construct: the whole entry for isoform 1 is named here; also called CD97 GAIN domain
T3 sequence: T1 sequence with K331T
Protocol: as §1

binding result [1]: no binding (tested: 1000 nM)
Kd [2]: 310 nM
Kd [3]: 45 nM
B1: Antibody clone A8, Fab format (Fab, V domains shown)
VH: EVQLVESGGGLVQPGGSLRLSCAASGFTISSYSIHWVRQAPGKGLEWVASISPYYGSTSYADSVKGRFTISADTSKNTAYLQMNSLRAEDTAVYYCARSWYYYEQNPYWYQKEEQALDYWGQGTLVTVSS
VL: DIQMTQSPSSLSASVGDRVTITCRASQSVSSAVAWYQQKPGKAPKLLIYSASSLYSGVPSRFSGSRSGTDFTLTISSLQPEDFATYYCQQSVYSPVTFGQGTKVEIKR
notes: Fab; also called wild type A8
